Key:
[1] = tested on: AncSZ; assay: phosphorylation enrichment, bacterial display (enrichment ratio); higher = better substrate or ligand; peptides without Tyr show the background
[2] = molecular target: EPHB1 (UniProt P54762); assay: as above
[3] = molecular target: EPHB2 (UniProt P29323); assay: as above
[4] = molecular target: FGFR1 (UniProt P11362); assay: as above
[5] = molecular target: FGFR3 (UniProt P22607); assay: as above
[6] = tested on: Fer (mouse); assay: as above
[7] = molecular target: Fes (UniProt P07332); assay: as above
Fes, sequence (P07332 whole entry, looked up): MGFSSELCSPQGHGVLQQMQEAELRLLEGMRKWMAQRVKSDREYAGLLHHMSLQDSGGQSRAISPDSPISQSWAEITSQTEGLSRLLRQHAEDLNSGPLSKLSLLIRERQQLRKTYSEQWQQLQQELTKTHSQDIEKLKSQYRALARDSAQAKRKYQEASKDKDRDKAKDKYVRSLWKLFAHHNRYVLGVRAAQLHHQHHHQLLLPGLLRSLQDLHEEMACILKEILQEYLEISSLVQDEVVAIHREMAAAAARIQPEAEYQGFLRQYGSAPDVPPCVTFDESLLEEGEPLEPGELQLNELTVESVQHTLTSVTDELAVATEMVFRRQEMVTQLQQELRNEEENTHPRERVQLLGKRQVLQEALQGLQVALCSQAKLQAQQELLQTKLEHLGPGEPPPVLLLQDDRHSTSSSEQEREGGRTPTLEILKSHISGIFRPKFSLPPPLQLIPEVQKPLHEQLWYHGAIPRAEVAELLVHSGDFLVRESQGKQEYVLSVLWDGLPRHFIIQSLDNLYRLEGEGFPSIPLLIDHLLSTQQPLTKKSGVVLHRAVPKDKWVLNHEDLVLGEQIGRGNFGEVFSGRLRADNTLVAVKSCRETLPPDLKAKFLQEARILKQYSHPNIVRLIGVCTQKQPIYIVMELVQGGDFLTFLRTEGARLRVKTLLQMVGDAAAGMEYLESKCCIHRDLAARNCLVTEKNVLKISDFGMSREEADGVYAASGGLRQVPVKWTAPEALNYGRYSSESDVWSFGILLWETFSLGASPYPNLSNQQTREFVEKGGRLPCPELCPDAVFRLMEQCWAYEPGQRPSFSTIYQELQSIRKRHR

[8] = molecular target: Fyn (UniProt P06241); assay: as above
Fyn, sequence (P06241 whole entry, looked up): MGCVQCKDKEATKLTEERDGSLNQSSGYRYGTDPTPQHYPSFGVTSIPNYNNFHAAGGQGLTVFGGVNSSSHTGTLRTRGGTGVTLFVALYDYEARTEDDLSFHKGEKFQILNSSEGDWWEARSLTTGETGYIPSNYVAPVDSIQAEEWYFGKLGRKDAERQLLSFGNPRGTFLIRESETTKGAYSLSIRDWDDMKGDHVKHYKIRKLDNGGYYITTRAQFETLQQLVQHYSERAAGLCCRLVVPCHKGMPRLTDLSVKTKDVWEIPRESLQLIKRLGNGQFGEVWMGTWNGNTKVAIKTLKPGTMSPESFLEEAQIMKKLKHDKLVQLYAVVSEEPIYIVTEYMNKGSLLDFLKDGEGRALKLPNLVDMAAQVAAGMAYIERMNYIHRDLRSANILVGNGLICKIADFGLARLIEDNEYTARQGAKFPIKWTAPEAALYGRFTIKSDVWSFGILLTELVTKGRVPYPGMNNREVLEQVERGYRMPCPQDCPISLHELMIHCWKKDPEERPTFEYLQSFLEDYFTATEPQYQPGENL

[9] = molecular target: Hck (UniProt P08631); assay: as above
[10] = molecular target: Jak2 (UniProt O60674); assay: as above
[11] = molecular target: MERTK (UniProt Q12866); assay: as above
MERTK, sequence (Q12866 whole entry, looked up): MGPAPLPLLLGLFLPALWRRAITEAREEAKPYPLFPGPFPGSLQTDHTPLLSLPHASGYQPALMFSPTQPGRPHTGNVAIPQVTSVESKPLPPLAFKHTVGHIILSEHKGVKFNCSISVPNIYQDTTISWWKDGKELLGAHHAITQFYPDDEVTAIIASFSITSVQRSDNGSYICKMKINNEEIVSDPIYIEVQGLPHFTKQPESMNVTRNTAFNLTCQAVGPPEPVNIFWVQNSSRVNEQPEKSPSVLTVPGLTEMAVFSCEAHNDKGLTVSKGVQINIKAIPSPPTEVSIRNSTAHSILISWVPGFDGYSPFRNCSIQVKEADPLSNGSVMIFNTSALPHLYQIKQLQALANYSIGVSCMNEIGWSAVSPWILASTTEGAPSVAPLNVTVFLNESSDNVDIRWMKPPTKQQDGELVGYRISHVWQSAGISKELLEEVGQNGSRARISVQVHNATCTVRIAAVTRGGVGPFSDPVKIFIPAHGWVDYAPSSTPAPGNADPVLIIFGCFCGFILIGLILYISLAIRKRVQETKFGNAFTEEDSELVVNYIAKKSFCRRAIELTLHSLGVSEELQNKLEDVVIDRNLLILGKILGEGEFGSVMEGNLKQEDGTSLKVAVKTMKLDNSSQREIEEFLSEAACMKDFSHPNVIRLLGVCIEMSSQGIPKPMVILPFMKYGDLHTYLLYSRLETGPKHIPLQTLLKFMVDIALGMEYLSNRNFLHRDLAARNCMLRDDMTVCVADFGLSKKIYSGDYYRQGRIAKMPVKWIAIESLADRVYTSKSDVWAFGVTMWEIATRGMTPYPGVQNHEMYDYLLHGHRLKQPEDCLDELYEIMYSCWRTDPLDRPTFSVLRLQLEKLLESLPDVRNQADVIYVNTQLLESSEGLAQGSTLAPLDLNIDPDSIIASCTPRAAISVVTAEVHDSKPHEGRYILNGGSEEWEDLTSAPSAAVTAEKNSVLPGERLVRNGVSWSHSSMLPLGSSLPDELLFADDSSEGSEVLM

[12] = tested on: c-Abl (mouse); assay: as above
[13] = tested on: c-Src; assay: as above
[14] = molecular target: Grb2 SH2 (UniProt P62993); assay: SH2 binding enrichment of the phosphorylated peptide, bacterial display (enrichment ratio); higher = better substrate or ligand; peptides without Tyr show the background
[15] = molecular target: SHP2-C SH2; assay: as above
[16] = molecular target: c-Src SH2; assay: as above
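For SH2 binding enrichment of the phosphorylated peptide, bacterial display in this document: peptide library displayed on the E. coli surface as eCPX fusions, selected cells deep-sequenced, score is each peptide's frequency after selection divided by its frequency in the input.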
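For phosphorylation enrichment, bacterial display in this document: 11-residue human phosphosite peptides and single-mutation variants displayed on the E. coli surface, counted by deep sequencing, each peptide's frequency after selection divided by its frequency in the unselected input library; frequency after pTyr selection over input frequency; kinase dosed for 20-30% of maximal phosphorylation in three min.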

FGFR1, sequence (P11362 whole entry, looked up): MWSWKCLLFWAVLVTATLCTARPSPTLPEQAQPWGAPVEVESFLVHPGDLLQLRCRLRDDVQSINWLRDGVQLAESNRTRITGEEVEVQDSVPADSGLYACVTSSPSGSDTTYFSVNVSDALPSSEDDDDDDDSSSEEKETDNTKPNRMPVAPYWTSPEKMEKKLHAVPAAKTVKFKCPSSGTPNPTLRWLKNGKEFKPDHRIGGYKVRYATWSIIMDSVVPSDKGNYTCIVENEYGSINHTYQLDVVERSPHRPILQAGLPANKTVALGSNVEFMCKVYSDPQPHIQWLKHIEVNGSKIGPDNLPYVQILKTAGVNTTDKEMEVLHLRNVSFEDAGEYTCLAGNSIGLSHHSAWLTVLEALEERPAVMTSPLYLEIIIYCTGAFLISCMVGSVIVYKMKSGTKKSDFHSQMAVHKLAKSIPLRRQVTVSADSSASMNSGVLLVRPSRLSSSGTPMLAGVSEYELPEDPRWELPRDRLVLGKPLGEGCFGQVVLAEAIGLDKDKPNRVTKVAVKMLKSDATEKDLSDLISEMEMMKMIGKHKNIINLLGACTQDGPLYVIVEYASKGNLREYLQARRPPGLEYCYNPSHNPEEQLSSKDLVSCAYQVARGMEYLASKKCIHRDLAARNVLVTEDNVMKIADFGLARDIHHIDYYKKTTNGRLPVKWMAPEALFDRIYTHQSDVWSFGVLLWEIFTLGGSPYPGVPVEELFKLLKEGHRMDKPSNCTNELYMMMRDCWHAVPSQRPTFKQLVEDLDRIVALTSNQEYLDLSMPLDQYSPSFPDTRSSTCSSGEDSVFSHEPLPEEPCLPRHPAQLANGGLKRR
FGFR3, sequence (P22607 whole entry, looked up): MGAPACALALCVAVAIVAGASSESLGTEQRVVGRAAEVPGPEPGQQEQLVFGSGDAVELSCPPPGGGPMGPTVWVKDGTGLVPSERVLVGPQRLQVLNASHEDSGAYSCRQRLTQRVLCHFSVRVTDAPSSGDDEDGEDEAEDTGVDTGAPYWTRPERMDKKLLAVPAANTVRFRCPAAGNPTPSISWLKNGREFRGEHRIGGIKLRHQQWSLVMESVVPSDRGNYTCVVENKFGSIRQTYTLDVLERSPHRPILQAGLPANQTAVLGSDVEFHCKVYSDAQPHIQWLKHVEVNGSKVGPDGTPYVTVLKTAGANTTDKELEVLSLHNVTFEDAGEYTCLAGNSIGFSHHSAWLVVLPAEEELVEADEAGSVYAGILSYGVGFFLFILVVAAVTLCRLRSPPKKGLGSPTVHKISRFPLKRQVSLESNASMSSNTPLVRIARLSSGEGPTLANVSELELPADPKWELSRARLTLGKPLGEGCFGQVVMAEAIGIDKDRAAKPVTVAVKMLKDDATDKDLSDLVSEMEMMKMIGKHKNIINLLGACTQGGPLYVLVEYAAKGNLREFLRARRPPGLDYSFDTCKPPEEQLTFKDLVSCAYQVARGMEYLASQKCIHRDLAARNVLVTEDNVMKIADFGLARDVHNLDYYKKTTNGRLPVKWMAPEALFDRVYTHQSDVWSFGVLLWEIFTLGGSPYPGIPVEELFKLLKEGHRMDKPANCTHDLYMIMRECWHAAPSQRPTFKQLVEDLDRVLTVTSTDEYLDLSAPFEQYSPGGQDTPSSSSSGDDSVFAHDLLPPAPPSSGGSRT
EPHB2, sequence (P29323 whole entry, looked up): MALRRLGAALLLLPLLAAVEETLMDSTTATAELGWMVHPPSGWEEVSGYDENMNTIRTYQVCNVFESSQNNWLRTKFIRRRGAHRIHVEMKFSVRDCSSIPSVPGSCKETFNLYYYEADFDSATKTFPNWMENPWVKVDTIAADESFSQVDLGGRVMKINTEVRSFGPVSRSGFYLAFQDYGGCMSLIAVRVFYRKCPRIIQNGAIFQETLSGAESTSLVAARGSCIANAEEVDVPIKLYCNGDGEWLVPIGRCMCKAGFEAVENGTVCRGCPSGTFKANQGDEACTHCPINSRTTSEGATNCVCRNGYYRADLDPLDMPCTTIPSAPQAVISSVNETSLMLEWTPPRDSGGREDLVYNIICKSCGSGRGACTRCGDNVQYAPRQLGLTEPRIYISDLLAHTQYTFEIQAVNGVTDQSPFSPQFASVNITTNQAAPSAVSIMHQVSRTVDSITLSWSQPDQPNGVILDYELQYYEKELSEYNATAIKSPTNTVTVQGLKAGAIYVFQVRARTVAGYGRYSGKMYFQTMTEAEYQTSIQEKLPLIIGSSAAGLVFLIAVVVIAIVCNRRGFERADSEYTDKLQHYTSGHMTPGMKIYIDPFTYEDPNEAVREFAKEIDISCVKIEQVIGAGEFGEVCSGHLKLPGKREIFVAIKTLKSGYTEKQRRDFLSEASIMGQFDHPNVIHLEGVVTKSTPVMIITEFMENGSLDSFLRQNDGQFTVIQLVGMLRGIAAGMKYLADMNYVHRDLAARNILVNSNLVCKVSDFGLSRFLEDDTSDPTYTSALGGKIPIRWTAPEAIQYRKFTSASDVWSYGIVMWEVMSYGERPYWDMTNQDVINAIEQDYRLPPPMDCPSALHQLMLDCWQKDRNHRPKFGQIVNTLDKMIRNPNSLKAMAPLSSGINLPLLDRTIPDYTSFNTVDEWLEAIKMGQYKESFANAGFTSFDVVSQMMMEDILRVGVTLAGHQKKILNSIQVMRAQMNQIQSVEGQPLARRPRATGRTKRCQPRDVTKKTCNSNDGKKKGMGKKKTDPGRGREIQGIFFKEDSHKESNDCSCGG

Sequence	phosphorylation enrichment [1]	phosphorylation enrichment [2]	phosphorylation enrichment [3]	phosphorylation enrichment [4]	phosphorylation enrichment [5]	phosphorylation enrichment [6]	phosphorylation enrichment [7]	phosphorylation enrichment [8]	phosphorylation enrichment [9]	phosphorylation enrichment [10]	phosphorylation enrichment [11]	phosphorylation enrichment [12]	phosphorylation enrichment [13]	SH2 binding enrichment [14]	SH2 binding enrichment [15]	SH2 binding enrichment [16]
EIHTQYEAMAS [GFAP_Y242_R239H]	0.712	0.386	0.566	0.527	0.491	0.677	0.753	0.514	0.539	0.642	0.428	0.42	0.383	0.885	0.487	2.9
EKEQNYDLTQV [ECD_Y448_E452Q]	1.24	0.513	0.612	0.612	0.782	1.17	1.33	0.557	0.528	1.07	0.569	1.42	0.506	0.79	0.508	0.486
EKKDVYKAGEQ [CFH_Y1008]	1.08	0.336	0.643	0.434	0.482	0.624	0.675	0.404	0.386	0.555	0.425	0.475	0.394	0.954	0.549	0.596
EKKKYYDTKIE [CASP5_Y104]	0.863	0.366	0.518	0.365	0.637	0.381	1.03	0.486	0.511	0.779	0.443	0.761	0.452	0.752	0.505	0.498
ELRGTYTSLQQ [KIF3C_Y574]	0.705	0.398	0.481	0.489	0.535	0.428	0.869	0.978	0.956	0.777	0.434	0.684	1.39	0.775	4.42	3.05
EQKKFSNAMKK [SCN5A_Y1495_Y1495S_YF]	0.474	0.229	0.345	0.378	0.693	0.331	0.473	0.293	0.364	0.315	0.326	0.375	0.401	0.735	0.64	0.642
EQKKFYNAMKN [SCN5A_Y1495_K1500N_YF]	0.458	0.297	0.33	0.366	0.427	0.451	0.43	0.367	0.388	0.41	0.458	0.446	0.409	0.751	0.527	0.381
EQKKYYNAVKK [SCN5A_Y1495_M1498V]	0.529	0.341	0.34	0.425	0.466	0.414	0.63	0.328	0.352	0.634	0.563	0.511	0.476	1.16	1.01	0.696
EQYELYCEMGS [CBL_Y371]	3.8	7.29	8.68	4.55	4.12	3.7	1.61	4.26	5.35	1.37	5.03	1.08	4.14	0.89	0.776	0.629
ERLWDYGMSSS [F8_Y1728]	0.971	0.612	0.578	0.433	0.742	0.483	1.06	0.415	0.459	0.778	0.399	0.767	0.419	0.779	0.742	0.597
ERMKVYVPIGF [EPHX1_Y393_T396I]	0.67	0.623	0.497	0.412	0.538	0.425	0.742	1.13	0.622	0.597	0.478	0.543	0.907	0.76	0.909	0.556
ERWLKYFPIEQ [HS3ST5_Y244]	1.05	0.401	0.566	0.452	0.798	0.566	1.27	0.361	0.436	0.855	0.451	0.624	0.288	1.25	1.05	0.729
ESDGAYIQRMQ [CCDC137_Y125_H127Q]	0.687	0.474	0.496	0.385	0.54	0.417	0.772	0.423	0.446	0.985	0.43	0.599	0.456	0.731	0.708	0.468
ESKKHYGYSLY [ANXA3_Y295_F291S]	0.595	0.413	0.455	0.408	0.474	0.453	0.593	0.454	0.646	0.551	0.486	0.435	0.541	0.704	0.963	0.913
ESMLRYDVYGG [STOX1_Y607_E608D]	0.96	0.646	1.08	0.482	0.705	0.462	0.972	1.04	1.3	0.704	0.918	0.529	1.29	0.996	0.62	0.723
ESPGLCGFLNV [BCR_Y910_Y910C]	1.01	0.595	0.617	0.557	0.72	0.476	1.38	0.494	0.487	0.979	0.519	0.844	0.453	0.622	0.63	0.377
EVVGRYSVHYA [MLH1_Y183_N187Y]	0.751	0.475	0.5	0.462	0.588	0.416	1.03	0.392	0.38	0.823	0.46	0.649	0.404	0.75	0.808	0.544
EWLRRHLENGK [HLA-A_Y195_Y195H]	0.578	0.39	0.481	0.429	0.552	0.34	0.811	0.302	0.409	0.824	0.34	0.57	0.331	0.823	0.839	0.6
EYDRLYEEYTR [PIK3R1_Y467]	2.49	4.27	7	0.826	0.889	6.02	1.43	7.8	6.46	1.21	2.8	1.34	5.99	0.728	0.678	3.83
EYGRRYGFSRQ [CCDC93_Y209]	0.577	0.41	0.393	0.389	0.588	0.309	0.646	0.424	0.438	0.475	0.534	0.525	0.419	0.676	0.572	0.474
FADIAYNYRQG [PAH_Y166_H170Q]	0.75	0.713	0.454	0.412	0.728	0.471	0.872	0.482	0.507	0.661	0.43	0.594	0.522	1.02	0.669	0.469
FDAHNYHPLPV [OAT_Y55_G51D_YF]	0.731	0.635	0.762	10.7	5.97	1.13	0.734	0.501	1.1	1.02	1.09	0.807	0.556	0.731	0.634	0.841
FDDGKYVFVVT [RPS6KA3_Y488_YF]	1.38	0.652	0.545	0.632	0.911	0.513	1.49	0.493	0.572	1.46	0.474	0.995	0.507	0.626	0.531	0.382
FEEDPYLVVNP [MCM6_Y810_YF]	1.87	0.743	0.6	1.23	1.62	0.886	1.46	1.88	1.04	1.54	0.533	0.87	2.65	0.769	0.557	0.507
FFHCTYKKRMI [CLEC12A_Y242_YF]	0.894	0.444	0.612	0.386	0.637	0.39	1.06	0.364	0.468	0.816	0.321	0.532	0.39	1.28	1.15	0.944
FFNSEYGELSE [FLT4_Y1337_YF]	1.2	0.566	0.567	0.479	0.728	0.533	1.24	1.19	0.791	1.02	0.399	0.875	1.25	0.943	0.734	0.468
FFVVEYRDQKP [MUC17_Y4332_YF]	1.05	0.657	0.647	0.612	0.803	0.53	1.27	0.474	0.515	1.03	0.374	0.617	0.566	1.6	1.55	0.861
FFVVEYRNQKP [MUC17_Y4332_D4334N_YF]	1.32	0.795	0.841	0.581	0.98	0.82	1.65	0.623	0.687	1.55	0.413	1.52	0.608	1.46	1.38	0.865
FGPPQYNMQFS [ERBB2IP_Y977_I979M_YF]	0.64	0.414	0.427	0.448	0.452	0.306	0.679	0.456	0.52	0.49	0.376	0.383	0.372	0.932	0.653	0.529
